The source of these data is patent US20080058263A1 (published 2008).

T1: VEGFR-3-Fc (UniProt P35916 25-328)
T1 construct: domain: first three Ig domains; conditioned supernatant of 293T cells; also called VEGFR-3-Fc fusion protein; not shown: Fc fragment of the pIg vector
T1 sequence (looked up): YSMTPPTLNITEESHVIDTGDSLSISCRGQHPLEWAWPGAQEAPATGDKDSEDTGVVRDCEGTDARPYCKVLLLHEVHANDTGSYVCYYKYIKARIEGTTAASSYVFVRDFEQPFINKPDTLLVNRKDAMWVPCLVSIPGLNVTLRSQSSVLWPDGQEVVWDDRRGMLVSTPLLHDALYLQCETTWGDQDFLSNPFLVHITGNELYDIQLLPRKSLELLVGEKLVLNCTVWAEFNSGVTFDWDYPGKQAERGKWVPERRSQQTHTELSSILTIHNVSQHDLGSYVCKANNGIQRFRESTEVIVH

B1: 44-10 (ligand)
chain: AHYNTEILKFMDVYQRSYCHPREVCIDVGKEFGVATNTFFKPSCVPLMRCGGCCNDEGLECMNTSTSYLSKTLFEITVPLSQGPKPVTISFLQHNKCECRPKKD
B2: 44-12 (ligand)
chain: B1 chain with D56S, E60Q
B3: 44-16 (ligand)
chain: B1 chain with D56S, E60Q, L92A, Q93N, N95T, K96S, E98R, R100M, P101S, K103L
B4: 64-1 (ligand)
chain: GQNHHEVVKFMDVYQRSYCHPREVCIDVGKEFGVATNTFFKPSCVPLMRCGGCCNDEGLECVPTEESNITMQIMRIKPHQGQHIGEMSFLQHNKCECRPKKD
B5: 64-3 (ligand)
chain: B4 chain with D56S, E60Q
B6: 64-7 (ligand)
chain: B4 chain with D56S, E60Q, L90A, Q91N, N93T, K94S, E96R, R98M, P99S, K101L
B7: 64-5 (ligand)
chain: B4 chain with L90A, Q91N, N93T, K94S, E96R, R98M, P99S, K101L
B8: 64-6 (ligand)
chain: GQNHHEVVKFMDVYQRSYCHPREVCIDVGKEFGVATNTFFKPSCVPLMRCGGCCNDEGLECMNTSTSYLSKTLFEIKPHQGQHIGEMSFANHTSCRCMSKLD
B9: 44-4 (ligand)
chain: AHYNTEILKFMDVYQRSYCHPREVCIDVGKEFGVATNTFFKPSCVPLMRCGGCCNSEGLQCMNTSTSYLSKTLFEIKPHQGQHIGEMSFLQHNKCECRPKKD
B10: 64-4 (ligand)
chain: B9 chain with A1G, H2Q, Y3N, N4H, T5H, I7V, L8V
B11: 44-8 (ligand)
chain: B9 chain with L90A, Q91N, N93T, K94S, E96R, R98M, P99S, K101L
B12: 64-2 (ligand)
chain: B8 chain with A90L, N91Q, T93N, S94K, R96E, M98R, S99P, L101K
B13: 54-1 (ligand)
chain: AHYNTEILKSIDNEWRKTQCMPIETLVDIFQEFGVATNTFFKPSCVPLMRCGGCCNDEGLECVPTEESNITMQIMRIKPHQGQHIGEMSFLQHNKCECRPKKD
B14: 54-3 (ligand)
chain: B13 chain with D57S, E61Q
B15: 54-9 (ligand)
chain: AHYNTEILKSIDNEWRKTQCMPIETLVDIFQEFGVATNTFFKPSCVPLMRCGGCCNDEGLECVPTEESNITMQIMRITVPLSQGPKPVTISFLQHNKCECRPKKD
B16: 54-11 (ligand)
chain: B15 chain with D57S, E61Q
B17: 54-15 (ligand)
chain: B15 chain with D57S, E61Q, L93A, Q94N, N96T, K97S, E99R, R101M, P102S, K104L
B18: 54-13 (ligand)
chain: B15 chain with L93A, Q94N, N96T, K97S, E99R, R101M, P102S, K104L
B19: 44-9 (ligand)
chain: AHYNTEILKFMDVYQRSYCHPREVCIDVGKEFGVATNTFFKPSCVPLMRCGGCCNDEGLECVPTEESNITMQIMRITVPLSQGPKPVTISFLQHNKCECRPKKD
B20: 64-9 (ligand)
chain: B19 chain with A1G, H2Q, Y3N, N4H, T5H, I7V, L8V
B21: 44-15 (ligand)
chain: B19 chain with D56S, E60Q, L92A, Q93N, N95T, K96S, E98R, R100M, P101S, K103L
B22: 44-13 (ligand)
chain: B19 chain with L92A, Q93N, N95T, K96S, E98R, R100M, P101S, K103L
B23: 44-11 (ligand)
chain: B19 chain with D56S, E60Q
B24: 54-10 (ligand)
chain: AHYNTEILKSIDNEWRKTQCMPIETLVDIFQEFGVATNTFFKPSCVPLMRCGGCCNDEGLECMNTSTSYLSKTLFEITVPLSQGPKPVTISFLQHNKCECRPKKD

Positions count from the first letter of the chain named.

The target of the first experiment is T2, VEGFR-2-Fc (UniProt P35968 20-322).
T2 construct: domain: first 3 Ig domains; conditioned supernatant of 293T cells; also called VEGFR-2-Fc fusion protein; not shown: Fc fragment of the pIg vector
T2 sequence (P35968 20-322): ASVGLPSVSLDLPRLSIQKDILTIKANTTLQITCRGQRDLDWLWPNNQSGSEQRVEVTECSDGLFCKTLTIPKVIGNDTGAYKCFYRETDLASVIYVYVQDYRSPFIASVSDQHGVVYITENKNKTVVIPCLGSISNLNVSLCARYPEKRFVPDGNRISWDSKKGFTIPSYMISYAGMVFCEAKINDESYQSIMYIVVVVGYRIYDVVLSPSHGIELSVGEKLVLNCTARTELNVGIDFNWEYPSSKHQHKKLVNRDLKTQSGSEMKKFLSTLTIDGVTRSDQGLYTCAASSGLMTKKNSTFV
Description: receptor-Fc IP. The gist of the method:
(§1)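 Binding of ligand from sample supernatant measured by pentahistidine-antibody immunoprecipitation. IP mix: PBS with 1.5% BSA, 0.06% Tween 20, 3 μg/ml heparin and 400 ng/ml fusion protein, added 1:2 to sample supernatant.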
Take B1: the binding result was “no binding”.
As for B2, the binding result is listed as “no binding”.
Consider B3, for which the binding result was “no binding”.
Take B4: the binding result is “no binding”.
In the case of B5, the binding result is given as “no binding”.
As to B6, the binding result is given as “no binding”.
Regarding B7, the binding result is recorded as “no binding”.
The same measure, in the same setting: the same measure for B8: “no binding”; for B9: “no binding”; for B10: “no binding”.
On to B11, for which the binding result is “no binding”.
Same read-out and setting: the same measure for B12: “no binding”.
With B13, the binding result is “no binding”.
Regarding B14, the binding result is reported as “no binding”.
On to B15, for which the binding result is given as “no binding”.
Same read-out and setting: then B16, with “no binding”; and B17, with “no binding”.
Still for that read-out and setting: then B18, with “no binding”.
Turning to B19, the binding result is on record as “no binding”.
Take B20: the binding result is listed as “no binding”.
On to B21, for which the binding result is given as “no binding”.
For B22, the binding result was “no binding”.
For B23, the binding result was “no binding”.
As for B24, the binding result is reported as “no binding”.

In a further experiment the target is T3, VEGFR-1-Fc (UniProt P17948 27-338).
T3 construct: domain: first three Ig domains; expressed in Drosophila S2 cells, purified on Protein A sepharose; also called VEGFR-1-Fc fusion protein; not shown: Fc fragment from the Signal-pIgPlus vector
T3 sequence (P17948 27-338): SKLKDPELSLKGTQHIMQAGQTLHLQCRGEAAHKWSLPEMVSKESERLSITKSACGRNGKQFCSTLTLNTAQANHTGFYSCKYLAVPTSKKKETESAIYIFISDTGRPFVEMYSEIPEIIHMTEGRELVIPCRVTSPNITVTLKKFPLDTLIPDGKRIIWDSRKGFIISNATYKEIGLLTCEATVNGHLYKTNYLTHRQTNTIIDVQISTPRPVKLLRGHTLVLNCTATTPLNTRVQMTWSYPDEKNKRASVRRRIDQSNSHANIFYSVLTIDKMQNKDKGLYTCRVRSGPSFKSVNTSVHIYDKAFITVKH
Description: receptor-Fc IP. In short, it runs like this:
as §1
For the molecule B1, the binding result is “no binding”.
As for B2, the binding result was “no binding”.
For B3, the binding result is listed as “no binding”.
The same measure, in the same setting: then B4, with “no binding”; and B5, with “no binding”.
On to B6, for which the binding result is reported as “no binding”.
Take B7: the binding result is “no binding”.
Turning to B8, the binding result is on record as “no binding”.
As for B9, the binding result is recorded as “no binding”.
As for B10, the binding result is recorded as “no binding”.
B11: the binding result is recorded as “no binding”.
Turning to B12, the binding result was “no binding”.
For the molecule B13, the binding result was “no binding”.
With B14, the binding result is listed as “no binding”.
Still for that read-out and setting: the same measure for B15: “no binding”.
For the molecule B16, the binding result was “no binding”.
Consider B17, for which the binding result was “no binding”.
In the case of B18, the binding result was “no binding”.
On the same count and under the same terms, the same measure for B19: “no binding”; for B20: “no binding”.
On to B21, for which the binding result was “no binding”.
Take B22: the binding result is “no binding”.
Turning to B23, the binding result is given as “no binding”.
B24: the binding result is “no binding”.

For the next experiment, the target named is T1, VEGFR-3-Fc. In words: receptor-Fc IP. The gist of the method: as §1
For B1, the binding result is listed as “no binding”.
For the molecule B2, the binding result is reported as “no binding”.
Regarding B3, the binding result is reported as “no binding”.
Take B4: the binding result is reported as “no binding”.
Consider B5, for which the binding result is on record as “no binding”.
As to B6, the binding result is “no binding”.
As to B7, the binding result is recorded as “no binding”.
Same read-out and setting: then B8, with “no binding”.
In the case of B9, the binding result was “no binding”.
Same read-out and setting: the same measure for B10: “no binding”; for B11: “no binding”; for B12: “no binding”.
For the molecule B13, the binding result is on record as “no binding”.
As for B14, the binding result is given as “no binding”.
Turning to B15, the binding result was “no binding”.
Turning to B16, the binding result is given as “no binding”.
In the case of B17, the binding result is given as “no binding”.
As to B18, the binding result is “no binding”.
As for B19, the binding result is on record as “no binding”.
Regarding B20, the binding result is given as “no binding”.
For B21, the binding result was “no binding”.
Take B22: the binding result was “no binding”.
Same read-out and setting: the same measure for B23: “no binding”.
Consider B24, for which the binding result is on record as “no binding”.
